Tests used:
[1] = molecular target: RKIP^S153A, cardiac transgene
[2] = molecular target: wild-type RKIP, cardiac transgene (RKIP-tg)

B1: G protein-coupled receptor kinase (GRK) in mouse heart lysates (protein)
chain: MADLEAVLADVSYLMAMEKSKATPAARASKKILLPEPSIRSVMQKYLEDRGEVTFEKIFSQKLGYLLFRDFCLNHLEEAKPLVEFYEEIKKYEKLETEEERVVRSREIFDSYIMKELLACSHPFSKNATEHVQGHLVKKQVPPDLFQPYIEEICQNLRGDVFQKFIESDKFTRFCQWKNVELNIHLTMNDFSVHRIIGRGGFGEVYGCRKADTGKMYAMKCLDKKRIKMKQGETLALNERIMLSLVSTGDCPFIVCMSYAFHTPDKLSFILDLMNGGDLHYHLSQHGVFSEADMRFYAAEIILGLEHMHNRFVVYRDLKPANILLDEHGHVRISDLGLACDFSKKRPHASVGTHGYMAPEVLQKGVAYDSSADWFSLGCMLFKLLRGHSPFRQHKTKDKHEIDRMTLTMAVELPDSFSPELRSLLEGLLQRDVNRRLGCLGRGAQEVKESPFFRSLDWQMVFLQKYPPPLIPPRGEVNAADAFDIGSFDEEDTKGIKLLDSDQELYRNFPLTISERWQQEVAETVFDTINAETDRLEARKKAKNKQLGHEEDYALGKDCIVHGYMSKMGNPFLTQWQRRYFYLFPNRLEWRGEGEAPQSLLTMEEIQSVEETQIKERKCLLLKIRGGKQFVLQCDSDPELVQWKKELRDAYREAQQLVQRVPKMKNKPRSPVVELSKVPLIQRGSANGL
- GRK activity (in vitro rhodopsin phosphorylation with heart lysates; immunoblot of β2AR phosphorylation) [1]: GRK activity was significantly reduced in mouse hearts of RKIP-tg but not of RKIP^S153A mice
- GRK activity (in vitro rhodopsin phosphorylation with heart lysates; immunoblot of β2AR phosphorylation) [2]: GRK activity was significantly reduced in mouse hearts of RKIP-tg
